± gives the uncertainty stated by the source.

A short description of this data set: amyloid nucleation score (Sup35N fusion, yeast selection) (log enrichment); library NNK3; higher = more nucleation; inactive = no reads after selection. A digest of the protocol:
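In psi-negative yeast, Sup35N fusions carrying peptides of 20 random codons were induced with 100 μM copper sulfate for 24 hours. The cells then grew 7 days at 30°C on medium lacking adenine and uracil, and plasmid inserts from input and output were Illumina-sequenced, excluding sequences with under 100 input reads. Nucleation score is the DiMSum log enrichment of output over input reads, centred on the mode score of non-aggregating sequences.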
As to FYYPRS, the amyloid nucleation score entry was “inactive”. The substance VSTSVDYFYGGPWTLVFGCL yielded an amyloid nucleation score of 2.6 ± 0.072. To SELRC belongs 0.114 ± 0.44. With LCFAVSDCFNYKVLPILMGA, the amyloid nucleation score result was “inactive”.

For the substance RLIQTLWIFIKVRSRALVTH, the amyloid nucleation score entry is “inactive”.

Consider HCSWTSSAHEGPYAETGHWQ, for which the amyloid nucleation score came to 0.557 ± 0.24. Next, VWPFPRFRILVKYSFFLGIW: -0.232 ± 0.48; RHVQG: “inactive”. Turning to SVEGQHYKLAVTFVDLYNSI, the amyloid nucleation score result is “inactive”. To RFISLVRNYFFTCCRRRSMF belongs “inactive”; to NFVPVYSLSRRAVLGHTGWC, “inactive”.

The substance RLLFMIPIMIVMNQHPTMNV displayed an amyloid nucleation score of 1.01 ± 0.17. For the substance LYWFCCLVIYVGPLVHPVEL, the amyloid nucleation score result was “inactive”.

For the substance AVTSLDVGFYV, the amyloid nucleation score result is “inactive”. CMSRYVDSYFNLAYRDRFLW: the amyloid nucleation score came to 0.451 ± 0.47.

Take DWEARCCREVTGNGVFESQK: the amyloid nucleation score result is “inactive”.

Take LEEDVHISFHHIFDRFCPTT: the amyloid nucleation score result is “inactive”. To FNVYMIITNFLDPL belongs 2.64 ± 0.062; to SPYPITGLFWCFINWSHKVM, “inactive”. To WKRNKRGKV belongs 1.4 ± 0.11. To EGARSGKENGSGKPYRPLGV belongs 0.528 ± 0.22; to IGGRTDNSELTCTRGMRFLC, “inactive”; to LKDCTCEFIFMTGKYCIYFR, -0.495 ± 0.76. Substance TMSVMPLTVQVLVGRISDGQ registered an amyloid nucleation score of 1.71 ± 0.071. To LHYLLTLARKSEWHYLLDIR belongs “inactive”. To DSLRWDYRL belongs “inactive”. To LTFGTCFGPYYGVYPNLFIM belongs “inactive”; to TPHESLRTCFLTKR, “inactive”; to NSSNII, 2.56 ± 0.067.

For the substance ANDGAHFFIIQLECHAEEVR, the amyloid nucleation score was -0.303 ± 0.39. YIAVMILLCHVKHEMSLLII came in with an amyloid nucleation score of 2.71 ± 0.055. Next, TTLVSNWQCSMGCCEVLWR: 3.32 ± 0.075; YVPFNFMKHVIATVLSGV: 0.014 ± 0.77; MTWNVGRADGFLRSSCSNFR: “inactive”. DNQFICLFVVEIGIVYDSYA: the amyloid nucleation score result is “inactive”. Consider VNGSV, for which the amyloid nucleation score result is “inactive”. To VSGVECSCD belongs 0.762 ± 0.15; to NLSSSDTRSVCASWVTR, “inactive”; to RILVMVNKG, 0.81 ± 0.17. To GKFFMVSRYCESSSLRFESM belongs 1.15 ± 0.17. Regarding LAALLKASWVSHVVSWNKRT, the amyloid nucleation score result is “inactive”. As to TYRVLE, the amyloid nucleation score result is “inactive”. To KYFIINYSVSSNGRKAHYCQ belongs 2.28 ± 0.065; to KNQMVFVINY, 2.68 ± 0.053; to TLMISPENIVRR, “inactive”.

With SYCLYKLQLLWHDNHGFGYN, the amyloid nucleation score entry is “inactive”. As for LQTMTDSFKRTQCLCSYKCT, the amyloid nucleation score result is “inactive”. As to VTAMSMNVAQCPAYPR, the amyloid nucleation score entry is “inactive”. To GSWSKNMILHTLDLDCVAIV belongs “inactive”; to SSMCVLCWTIVSVRNEAVEG, 1.9 ± 0.098. As for WWSKVMYRSTPTLNAFKDRQ, the amyloid nucleation score entry is “inactive”. Next, FMLRFPLPPSKIHVRYMPTC: “inactive”; PHCPELEQQVKCGTS: 0.178 ± 0.26. WNYRFYPVKRNGSFLSRIVR displayed an amyloid nucleation score of -0.47 ± 0.8. Take NSNIQKHICVQFVKRWLEPC: the amyloid nucleation score entry was “inactive”.

Take SDLQVIWFMFFCSTLVRDWI: the amyloid nucleation score entry is “inactive”.

Take PYFIPYCV: the amyloid nucleation score result was “inactive”. To RWWVMLLLVRWKRHQDTAYV belongs “inactive”; to GVSEAMCVILFYFYWKWVFP, “inactive”.

On to MFVSDKEYRCVTSSVTRVCT, for which the amyloid nucleation score result was “inactive”. With LSPCGL, the amyloid nucleation score entry is “inactive”.

ACRYDLSKKPNASWARAEG came in with an amyloid nucleation score of -0.272 ± 0.37. To YIKCKFF belongs “inactive”; to FTRNEQP, “inactive”; to IFVILW, 0.101 ± 0.6. Turning to TAFTMGV, the amyloid nucleation score entry was “inactive”. Next, FARVSVESRGGNVTFACLCI: 1.73 ± 0.12.

Substance VTRSDGTTISYNISIKLGKG registered an amyloid nucleation score of 2.2 ± 0.071. Take VMSFVFNTSLWSMYIRIGSP: the amyloid nucleation score entry is “inactive”. Next, NRYGGSAQGHPMWVTTSREW: “inactive”; NSVDP: “inactive”; YLLNVVYGKEVHMASDFLYG: “inactive”. With TLTYRSSQND, the amyloid nucleation score result was “inactive”. To VLTLLMKVEHTGVSHSVGRV belongs 1.02 ± 0.19; to LGNISCELARIELHAPAIR, “inactive”. In the case of SIVSPIMRLFCFGLRAYKAV, the amyloid nucleation score entry is “inactive”. As for EYPFFIKSQGR, the amyloid nucleation score result is “inactive”. To VLLKRL belongs “inactive”; to CHISFWLTLWGRSNSEMWMD, “inactive”; to SVLGRHYVYLLSIVCGVIFG, “inactive”. Next, ERVTRSMWTVGKRYRTGK: “inactive”; LHYICQKLGGMWMVLVCRAC: “inactive”. Substance GGLSS yielded an amyloid nucleation score of -0.809 ± 0.71.

With TIYCWTQNIHDY, the amyloid nucleation score was 2.3 ± 0.086. To TTFSLTLIGFNDSGVKLLM belongs 2.21 ± 0.069; to DDRVVPVLYQTCSAVRR, “inactive”; to FPFKV, “inactive”. As for SWAYL, the amyloid nucleation score entry was “inactive”. To ALSAYQGVFSYWCRWQWLVA belongs “inactive”; to QKMGRGARKCMQLYVMGKDL, “inactive”; to MWWGLAPIFWLLITTTDCGY, “inactive”. To LSSYMDYGMSKVYVLWRSTW belongs -0.117 ± 0.28; to KDQSRSARSST, “inactive”. Take HVRDTKRVSLKRSTYADRGG: the amyloid nucleation score result was “inactive”. For NFWNWLHNPWAPM, the amyloid nucleation score entry is “inactive”. On to HQISVVCGTNMRNGCFRSLC, for which the amyloid nucleation score result was “inactive”. To LSFSLWNLEYIEISRRNLTL belongs 1.2 ± 0.097; to VMFRCN, “inactive”; to YDKCLQCARRHNSSILSPTG, “inactive”. In the case of NLMRSILWVEYVQDCNCCSG, the amyloid nucleation score stood at 2.54 ± 0.07.

Consider DCFLLSTIVALYRDYRYIGT, for which the amyloid nucleation score result was “inactive”.

As to WLLTNNLDCQCCMCLDWMWC, the amyloid nucleation score turned out to be 2.81 ± 0.057. As to VYIRTGN, the amyloid nucleation score entry is “inactive”.

For the substance KITIKFYRCTS, the amyloid nucleation score entry is “inactive”. Next, SLTVFLWVAQRVAAMRAGVL: “inactive”; RSLWALSPENRPLGKVS: “inactive”. TSSLDEGTFV registered an amyloid nucleation score of 0.644 ± 0.16. To YSFECMSH belongs “inactive”; to SWIVNKVF, “inactive”; to QKAVIGM, “inactive”. Next, RCLCDPGYCCIFISENWIL: 1.74 ± 0.064; FTTRFTFTIP: 1.24 ± 0.17; MVYIKILHFVILMSMHFN: “inactive”. For the substance LFFCHYILY, the amyloid nucleation score turned out to be 1.58 ± 0.087. To PEPHLKSEKYNCSGDWPLPL belongs “inactive”. To SWSARVKVLLVVGCNVSVFC belongs 0.842 ± 0.2; to TFSGVCIVIAYCGVFNILEG, 1.94 ± 0.097; to ETKSCWQL, “inactive”.

Consider SFRSGLLSGRKWGHPVSSQE, for which the amyloid nucleation score entry was “inactive”. Take GTNDSDFESWNVFKCINCLA: the amyloid nucleation score result is “inactive”. As for LCGCS, the amyloid nucleation score result was “inactive”. As for VVFCEYSTCAVRSL, the amyloid nucleation score was -0.219 ± 0.89. Next, LSLKRHLYLKVDASLTCVRT: “inactive”. Next, EWVANPSFGYAEWLLV: “inactive”; QKVVFW: “inactive”; SCCYAPRQPLWYASEFGVVG: “inactive”. Next, FHCSDYADVHSILTLLLVHT: “inactive”. As for AVITSRVRWSLRNRRANISM, the amyloid nucleation score entry is “inactive”. As to LVLQLGFKKSPLRVYRSSGN, the amyloid nucleation score entry was “inactive”. Next, LLLCS: 0.402 ± 0.18.

Consider EVSGYINMR, for which the amyloid nucleation score entry was “inactive”.

Take LYDSSTALATVSDHFVEWLS: the amyloid nucleation score entry is “inactive”. Next, GSAVVAAECIGKRC: “inactive”. Next, VPPFPRMEAGGYVHVVAFSV: “inactive”; YFLRVNGSCANIDDHGLFSW: “inactive”.

These data come from the supplement of paper PMC12042874.
